Here are results for one protein from patent US20150368309A1 (SHIRE HUMAN GENETIC THERAPIES, published 2015).

The series deals with the molecule itself. Briefly: DSS crosslinking, anti-Flt-1 Western blot. Here is the method:
PLGF and sFlt-1 (Human sFlt-1:Abcam, Cat#54346) were incubated on ice for 2 hrs in 100 μL crosslinking buffer. After the incubation, the crosslinking reagent, Disuccinimidyl suberate (DSS), was added, 1 μL of 25 mM stock DSS (in DMSO) to a final concentration of 250 μM. After brief vortexing, the mixture was incubated on ice for additional 15 min.
To analyze the crosslinked complexes using Western blot, the pellets were solubilized with 30 μL of 1×LDS buffer containing 10 mM DTT. After heating the dissolved pellets to 37° C. for 15 min, 10 μL of the sample was loaded onto 8 to 16% Tris-glycince SDS-PAGE gel. The gels were transferred to PVDF membranes by standard method for anti-PLGF or anti-Flt-1 Western blot analysis.
WT PLGF forms dimers in its native state, and the binding models of WT PLGF with hsFlt-1 were established. A PLGF C59A monomer binding with Flt-1 receptor monomer is also found. The binding complexes, WT PLGF-hsFlt-1 and PLGF C59A-hsFlt-1, were crosslinked by DSS through amine groups on the surface of PLGF or hsFlt-1 molecules. After separating on SDS-PAGE, PLGF-containing or Flt-1 containing binding complexes were detected on Western blot by anti-PLGF or anti-Flt-1 antibodies.
(A western blot detects proteins with antibodies after separation by electrophoresis.)

B1: Human sFlt-1 (Abcam, Cat#54346), without Fc fusion (receptor, UniProt P17948-2 27-687, looked up)
chain: SKLKDPELSLKGTQHIMQAGQTLHLQCRGEAAHKWSLPEMVSKESERLSITKSACGRNGKQFCSTLTLNTAQANHTGFYSCKYLAVPTSKKKETESAIYIFISDTGRPFVEMYSEIPEIIHMTEGRELVIPCRVTSPNITVTLKKFPLDTLIPDGKRIIWDSRKGFIISNATYKEIGLLTCEATVNGHLYKTNYLTHRQTNTIIDVQISTPRPVKLLRGHTLVLNCTATTPLNTRVQMTWSYPDEKNKRASVRRRIDQSNSHANIFYSVLTIDKMQNKDKGLYTCRVRSGPSFKSVNTSVHIYDKAFITVKHRKQQVLETVAGKRSYRLSMKVKAFPSPEVVWLKDGLPATEKSARYLTRGYSLIIKDVTEEDAGNYTILLSIKQSNVFKNLTATLIVNVKPQIYEKAVSSFPDPALYPLGSRQILTCTAYGIPQPTIKWFWHPCNHNHSEARCDFCSNNEESFILDADSNMGNRIESITQRMAIIEGKNKMASTLVVADSRISGIYICIASNKVGTVGRNISFYITDVPNGFHVNLEKMPTEGEDLKLSCTVNKFLYRDVTWILLRTVNNRTMHYSISKQKMAITKEHSITLNLTIMNVSLQDSGTYACRARNVYTGEEILQKKEITIRGEHCNKKAVFSRISKFKSTRNDCTTQSNVKH
notes: also called hsFlt-1; commercial sFlt-1 that doesn't contain Fc fusion
For the protein B1, the binding result is listed as “no binding”.
